Columns and labels:
elastase [1] = target: elastase
thrombin [2] = target: thrombin
[3] = target: furin endoprotease endogenous to BSC-40 cells
[4] = test system: syncytium formation IP/IR cells / CD4+ HeLa cells; type: cell-based, human; settings: serpin co-expressed with gp160 in IP/IR cells
elastase [5] = type: biochemical; settings: relative concentration of serpin inhibitor 100
[6] = test system: furin-mediated processing of pro-β-NGF in BSC-40 cells; type: cell-based, African green monkey
Human furin = type: biochemical; settings: for percent endoprotease activity in presence of each serpin (Furin): relative concentration of serpin inhibitor 100; for inhibition of furin endoprotease activity (FIG. 2, in words): serpin 10 μg/mL, 20 min 37° C. pre-incubation, substrate 50 μM
[7] = test system: furin-mediated processing of HIV-1 gp160 in BSC-40 cells; type: cell-based, African green monkey
thrombin [8] = type: biochemical

Molecule | percent endoprotease activity in presence of each serpin (elastase [1]) | percent endoprotease activity in presence of each serpin (thrombin [2]) | percent of pro-β-NGF processed in VV:mNGF-infected BSC-40 cells with α1 -PDX protein in the medium (densitometry) (% processed at 50 µg/mL) [3] | effect on gp41-mediated syncytia formation (FIGS. 6D-6F) [4] | percent endoprotease activity in presence of each serpin (Elastase) (elastase [5]) | forms of β-NGF secreted by co-infected cells (FIG. 3) [6] | percent endoprotease activity in presence of each serpin (Furin) (Human furin) | inhibition of furin endoprotease activity (FIG. 2, in words) (Human furin) | gp160 processing products in co-infected cells (FIG. 4) [7] | inhibition of thrombin endoprotease activity (FIG. 2, in words) (thrombin [8]; FIG. 2) | percent endoprotease activity in presence of each serpin (Thrombin) (thrombin [8]; relative concentration of serpin inhibitor 100)
native α1 -antitrypsin | 13% | – | – | – | – | – | – | – | – | – | –
α1 -antitrypsin Portland | 101% | 95% | 10 | – | – | – | – | – | – | – | –
α1 -antitrypsin Pittsburgh | 98% | 8% | – | – | – | – | – | – | – | – | –
α1 -NAT: native α1-antitrypsin, naturally-occurring protease inhibitor (-Ala-Ile-Pro-Met- at positions 355-358) (protein) EDPQGDAAQKTDTSHHDQDHPTFNKITPNLAEFAFSLYRQLAHQSNSTNIFFSPVSIATAFAMLSLGTKADTHDEILEGLNFNLTQIPEAQIHEGFQELLRTLNQPDSQLQLTTGNGLFLSQGLKLVDKFLEDVKKLYHSEAFTVNFGDTEQAKKQINDYVEKGTQGKIVDLVKELDRDTVFALVNYIFFKGKWERPFEVKDTEEEDFHVDQVTTVKVPMMKRLGMFNIQHCKKLSSWVLLMKYLGNATAIFFLPDEGKLQHLENELTHDIITKFLENEDRRSASLHLPKLSITGTYDLKSVLGQLGITKVFSNGADLSGVTEEAPLKLSKAVHKAVLTIDEKGTEAAGAMFLEAIPMSIPPEVKFNKPFVFLMIEQNTKSPLFMGKVVNPTGK | – | – | – | had no effect on syncytia formation | 13% | produced both the processed and unprocessed forms of β-NGF | 101% | unable to inhibit | produced both unprocessed gp160 and processed gp120 and gp41 | – | –
α1 -PIT: naturally-occurring variant α1-antitrypsin Pittsburgh, Met358→Arg358 mutation (Ala355-Ile-Pro-Arg358) (protein) EDPQGDAAQKTDTSHHDQDHPTFNKITPNLAEFAFSLYRQLAHQSNSTNIFFSPVSIATAFAMLSLGTKADTHDEILEGLNFNLTQIPEAQIHEGFQELLRTLNQPDSQLQLTTGNGLFLSQGLKLVDKFLEDVKKLYHSEAFTVNFGDTEQAKKQINDYVEKGTQGKIVDLVKELDRDTVFALVNYIFFKGKWERPFEVKDTEEEDFHVDQVTTVKVPMMKRLGMFNIQHCKKLSSWVLLMKYLGNATAIFFLPDEGKLQHLENELTHDIITKFLENEDRRSASLHLPKLSITGTYDLKSVLGQLGITKVFSNGADLSGVTEEAPLKLSKAVHKAVLTIDEKGTEAAGAMFLEAIPRSIPPEVKFNKPFVFLMIEQNTKSPLFMGKVVNPTGK | – | – | – | had no effect on syncytia formation | 98% | produced both the processed and unprocessed forms of β-NGF | 97% | not furin | produced both unprocessed gp160 and processed gp120 and gp41 | specifically inhibited | 8%
